Data taken from patent US8541373B2, “BChE albumin fusions for the treatment of cocaine abuse” (priority 2009, dated 2013).
Several values for one entry are separate records, joined by “and”; a condition that tells them apart may be missing. Equal values may be shown once.

Tests used:
[1] = AlbuBChE serum pharmacokinetics after single 5 mg/kg IM dose (ELISA); details: for AlbuBChE serum concentration, individual Squirrel monkeys: 5 mg/kg IM
Procedure: To evaluate AlbuBChE pharmacokinetics and pharmacodynamics following a single 5 mg/kg intramuscular injection of AlbuBChE to Squirrel monkeys. AlbuBChE pharmacodynamic effect was measured following cocaine IV administration at a dose of 1 mg/kg in control animals or at 2, 72 and 96 hr post-AlbuBChE dose.
Blood samples (0.4 mL) were collected from the femoral vein and placed into serum separator tubes (SST) at pre-dose, 24, 72, 96 & 336 hrs post-dose (samples collected at 336 hr (14 days) post-dose were intended to evaluate immunogenicity. The samples were also analyzed for AlbuBChE concentration). Tubes were maintained at room temperature for at least 1 hour, but not to exceed 4 hours prior to centrifugation. Samples were centrifuged and at least 200 μL of serum was harvested and maintained on dry ice prior to storage at approximately −70° C.
Blocking is done with 2% casein in phosphate buffered saline (PBS), 200 μL/well, 2 hours at room temperature. After washing, 100 μL of diluted serum samples are added to the plates along with standards. Standards are generated through 2.6 fold, serial dilution of AlbuBChE from 420 to 5.2 ng/mL. Serum samples and standards are maintained at 10% serum by dilution with buffer containing pooled cynomolgus monkey serum. A wash step precedes detection with 100 μl of anti-HSA mAb-6502-HRP at 0.04 μg/mL for 1 hour. Wells are washed again, prior to developing with 100 μl, of tetramethylbenzidine substrate. After 15 minutes the reaction is terminated with 100 μL/well of 1N H2SO4 and read on SpectraMax plate reader at 450/570 nm. Values for unknown serum samples are calculated by interpolation of standard curve generated by 5-parameter fit of AlbuBChE standards. Serum samples collected at predose and on Day 14 postdose were also analyzed for immunogenicity.
AlbuBChE pharmacokinetic parameter values were determined using serum concentration-time profiles for individual animals. The computer software WinNonlin Professional (Version 4.0.1 Pharsight Corporation, USA) was used. Specifically the model for non-compartmental analysis with extravascular input was applied.

[2] = Clinical study: safety, tolerability and immunogenicity of single IM AlbuBChE; type: in vivo, human; details: humans
Procedure: Forty (40) non-treatment seeking healthy adults who have used cocaine are randomly assigned to five (5) treatment groups. Each group will contain eight subjects. • Group A (low dose): Subjects receive a single, intramuscular injection of 50 mg of AlbuBChE. • Group B (intermediate dose): Subjects receive a single, intramuscular injection of 100 mg of AlbuBChE. • Group C (high-intermediate dose): Subjects receive a single, intramuscular injection of 150 mg of AlbuBChE. • Group D (high dose): Subjects receive a single, intramuscular injection of 300 mg of AlbuBChE. • Group E (negative control): Subjects receive a single, intramuscular injection of placebo.
Vital signs, including blood pressure, heart rate (part of the PD parameters) and body temperature are monitored. […]. Telemetry is performed for 4 hours immediately after each cocaine injection.
Local tolerability and pain (evaluated by the visual analogue scale (VAS)) at the injection site are evaluated during the first 24 h after dosing. Timepoints are: 20 min, 1, 2, 4, 8 and 24 hours post AlbuBChE dose.
Samples for immunogenic levels are collected but are not all necessarily assayed. Titers for antibodies against HSA, human butyryl cholinesterase (hBChE) and AlbuBChE are evaluated. Sampling timepoints are: pre-dose and 168 hours (Day 8), 240 hours (Day 11) and follow-up (Day 18±2) post-dose. The blood tests for IG assays take place before administration of cocaine (where relevant).

[3] = individual Squirrel monkeys, single IM 5 mg/kg
[4] = individual Squirrel monkeys, single IM 5 mg/kg, apparent, first sample at 24 hr
[5] = mean of 3 Squirrel monkeys, single IM 5 mg/kg

AlbuBChE
AlbuBChE serum concentration, individual Squirrel monkeys ([1]; 24 hr post dose): 2340.2 ng/mL and 2296.7 ng/mL and 2036.7 ng/mL
AlbuBChE serum concentration, individual Squirrel monkeys ([1]; 72 hr post dose): 436.9 ng/mL and 517.7 ng/mL and 433.7 ng/mL
AlbuBChE serum concentration, individual Squirrel monkeys ([1]; 96 hr post dose): 247.5 ng/mL (2×) and 233.5 ng/mL
AlbuBChE serum concentration, individual Squirrel monkeys ([1]; 336 hr post dose): 23.4 ng/mL and 19.0 ng/mL and 7.0 ng/mL
t½ ([1]; individual Squirrel monkeys (MKY 547, 3434, 53B), single IM 5 mg/kg AlbuBChE, serum, non-compartmental): 58.8 h and 45.5 h and 65.5 h
AUC % Extrap [1, 3]: 1.17% and 0.380% and 1.61%
AUC(0-t) [1, 3]: 136.268 µg·h/mL and 120.596 µg·h/mL and 135.454 µg·h/mL
AUC(0-∞) [1, 3]: 137.881 µg·h/mL and 121.056 µg·h/mL and 137.666 µg·h/mL
Cmax [1, 4]: 2297 ng/mL and 2037 ng/mL and 2340 ng/mL
tmax [1, 4]: 24 h
AUC(0-t) Mean [1, 5]: 130.773 µg·h/mL
AUC(0-∞) Mean [1, 5]: 132.201 µg·h/mL
Local tolerability and pain at the IM injection site [2]: acceptable
Immune response ([2]; 50 mg to 300 mg single dose): does not provoke a significant immune response
Safety ([2]; IM doses of 50 mg to 300 mg): No significant safety issues are observed
Tolerability ([2]; IM doses of 50 mg to 300 mg): well tolerated
Blood pressure after AlbuBChE ([2]; intramuscular injection): a significant increase in blood pressure is not observed
